# Molecular target: prototype SARS-CoV-2 tandem RBD homotrimer (PPP) (SARS-CoV-2) (UniProt P0DTC2)
# Experiment: SPR
row,Substance,Kd
1,REGN10933,5.4 nM
2,CR3022,80.6 nM
3,C022,1.8 nM
4,S309,0.4 nM
5,CV07-270,11.7 nM

# — article PMC10538664
